Measurements from US20100158902A1 (ONO PHARMACEUTICAL, published 2010).

Experiments:
[1] = target: T1, recombinant human SDF-1α (Peprotech) (human, UniProt P48061 22-89); assay: SPR (Biacore), antibody amine-coupled to CM5 chip, SDF-1 flowed at 5-40 nM right after dilution to maximize the dimer population, 1:1 Langmuir fit
T1 construct: Bought protein (Peprotech, cat. 300-28A); also called rh SDF-1α; Stromal cell-Derived Factor-1
Description: The antigen-antibody association kinetics was followed for 2 minutes and the dissociation kinetics was followed for 8 minutes. The association and dissociation curves were fit to a 1:1 Langmuir binding model using BIAevaluation software (Biacore AB).

[2] = target: T2, monomeric SDF-1 (human, UniProt P48061 22-89); assay: SPR (Biacore), low density of SDF-1 covalently attached to CM5 chip, analyte at 10-50 nM
T2 construct: also called monomeric form of SDF-1; SDF-1 at low density on a CM5 chip

[3] = target: T2, monomeric SDF-1; assay: SPR (Biacore), low density of SDF-1 covalently attached to CM5 chip, analyte at 100-500 nM
[4] = target: T1, recombinant human SDF-1α (Peprotech); assay: radio-labeled ligand binding assay: the antibody blocks binding of 100 pM 125I-SDF-1α to HuVEC cells (GAGs, no CXCR4); unit taken from the axis 'Ab conc in nM'
Source text: (§1) An irrelevant antibody with the same isotype was used as a negative control.

[5] = target: T1, recombinant human SDF-1α (Peprotech); assay: cell-based or functional assay
[6] = target: T1, recombinant human SDF-1α (Peprotech); assay: radio-labeled ligand binding assay: the antibody blocks binding of 100 pM 125I-SDF-1 to CEM cells; unit taken from the axis 'Ab in nM'
Source text: as §1

T2 sequence (P48061 22-89 limits assumed): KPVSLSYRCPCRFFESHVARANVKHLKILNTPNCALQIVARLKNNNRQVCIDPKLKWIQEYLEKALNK
T1 sequence (P48061 22-89 limits assumed): as above

Row | Binder | Kd [1] | koff [1] | kon [1] | Kd [2] | koff [2] | kon [2] | Kd [3] | koff [3] | kon [3] | EC50 [4] | EC50, inhibition of SDF-1α (5 nM)-induced migration of CEM cells (Fluorescent Units) [5] | EC50 [6]
1 | 1C6 human monoclonal antibody (antibody, V domains shown, Whole human monoclonal antibody with kappa light chain (VK L18), from a HuMAb Mouse; also called Z1/C6; mAb Z group antibody) VH: EVQLVESGRGLVQPGGSLRLSCAASGFTFSSYWMSWVRQAPGKGLEWVANMNQDGSEKYYVDSVKGRFTISRDNAKNSLYLQMNSLRAEDTAVYYCARDLTGPYYYDYYGMDVWGQGTTVTVSS VL: AIRMTQSPSSVSASVGDRVTITCRASQGISSALAWYQQTPGKAPKLLIYDASSLESGVPSRFSGSGSGTDFTLTISSLQPEDFATYYCQQFNSYPRTFGQGTKVEIK | 0.46 nM | 0.00064 s⁻¹ | 1.4e+06 M⁻¹ s⁻¹ | 3.6 nM | 0.0004 s⁻¹ | 110000 M⁻¹ s⁻¹ |  |  |  |  |  | 
2 | 1D3 human monoclonal antibody (antibody, V domains shown, Whole human monoclonal antibody with kappa light chain (VK L18), from a KM Mouse; also called B1/D3; mAb B group antibody) VH: EVQLVQSGAEVKKPGASVKVSCKVSGYTLTKLSVHWVRQAPGKGLEWMGSFDPEDGETIYSQRFQGRVTMTEDTSTDTAYMELTSLRSEDTAVYYCATEGQWLVAYYGMDVWGQGTTVTVSS VL: EIVLTQSPSSLSASVGDRVTITCRASQGISSALAWYQQKPGKAPKLLIYDASSLESGVPSRFSGSGSGTDFTLTISSLQPEDFATYYCQQFNSYPLTFGGGTKVEIK | 0.63 nM | 0.0005 s⁻¹ | 800000 M⁻¹ s⁻¹ |  |  |  | 151 nM | 0.0017 s⁻¹ | 11000 M⁻¹ s⁻¹ |  |  | 
3 | 1H2 human monoclonal antibody (antibody, V domains shown, Whole human monoclonal antibody with kappa light chain (VK L18), from a KM Mouse; also called B1/H2; B1H2) VH: QVQLVQSGAEVKKPGASVKVSCKVSGYTFTKLSVHWVRQAPGKGLEWMGSFDPEDGETIYSQRFQGRVTMTEDTSTDTAYMELSSLRSEDTAVYYCATEGQWLVAYYGMDVWGQGTMVTVSS VL: EIVLTQSPSSLSASVGDRVTITCRASQGISSALAWYQQKPGKAPKLLIYDASSLESGVPSRFSGSGSGTDFTLTISSLQPEDFATYYCQQFNSYPLTFGGGTKVEIK | 1.32 nM | 0.00084 s⁻¹ | 600000 M⁻¹ s⁻¹ |  |  |  | 176 nM | 0.0016 s⁻¹ | 9100 M⁻¹ s⁻¹ | 0.013 nM | 0.498 nM | 0.117 nM
4 | 2A5 human monoclonal antibody (antibody, V domains shown, Whole human monoclonal antibody with kappa light chain (VK L18), from a HuMAb Mouse; also called Z2/A5; Z2A5) VH: QVQLVQSGGGLVQPGGSLRLSCAASGFTFSSYWMSWVRQAPGKGLEWVANMNQDGSEKYYVDSVKGRFTISRDNAKNSLYLQMNSLRAEDTAVYYCARDLTGPYYYDYYGMDVWGQGTTVTVSS VL: DIQMIQSPSSLSASVGDRVTITCRASQGISSALAWYQQKPGKAPKLLIYDASSLESGVPSRFSGSGSGTDFTLTISSLQPEDFATYYCQQFNSYPRTFGQGTKVEIK | 0.37 nM | 0.0011 s⁻¹ | 2.9e+06 M⁻¹ s⁻¹ | 4.6 nM | 0.00045 s⁻¹ | 96000 M⁻¹ s⁻¹ |  |  |  | 0.0637 nM | 0.543 nM | 0.347 nM
